Reference: patent publication US5753621A, “Pulmonary surfactant protein fragments” (Abbott Laboratories, priority 1995, dated 1998)
No end group written: not given here. *: point of attachment. Acm = CC(=O)NC*

Columns and labels:
Type in all cases: physicochemical
[1] = Dynamic surface tension versus compressed surface area, modified Wilhelmy Surface Balance (Langmuir Trough); conditions: peptide 0.5 mg/ml (~2% of solids) in DPPC:PG:PA 68:22:9; 675 ug phospholipid on 445 sq. cm trough; recorded during seven complete cycles
Procedure: (§1) Prior to testing for surface activity, the synthetic fragments were admixed with lipids. A lipid mixture consisting of 68% 1,2-dipalmitoyl-sn-phosphatidylcholine (DPPC), 22% egg phosphatidylglycerol (PG) and 9% palmitic acid on a weight basis was prepared by dissolving the lipids in chloroform:methanol (2:1). The required amount of peptide fragment was dissolved in methanol and heated to 60° C. for 10 minutes. The peptide solution was then added to the lipid mixture prewarmed to 45° C. for ten minutes. The samples were mixed at 45° C. by gentle swirling at 100 revolutions per minute on a Buchi rotary evaporator. The organic solvents were then evaporated at 45° C. by increasing the vacuum in 100 torr increments every five minutes until most of the solvent was removed. Final vacuum was between 150-200 torr. Following evaporation, the solids were then suspended in 10% ethanol prewarmed to 45° C. and which was prepared using deionized distilled water. The suspension was gently mixed with vortexing and placed back under vacuum at 600 torr with a repeat of the vacuum ramping process. Final vacuum for the ethanol removal was 50 torr. Following complete removal of ethanol the suspension was diluted with aqueous 0.15M NaCl at 45° C. to yield an admixture with a phospholipid concentration of 25 mg/ml. The peptide/lipid admixtures were formed at final peptide concentrations of 0.5 mg/ml (equivalent to 2% of solids concentration).
The dynamic surface tension lowering properties of the peptide/lipid admixtures were studied using a modified Wilhelmy Surface Balance (Langmuir Trough). The instrument consists of an all Teflon trough and movable Teflon ribbon (dam) barrier system which completely contains and defines a variable surface area. Surface area was varied through the use of a constant rate reversible 3-phase motor to drive the Teflon barrier. A Cahn 2000 electrobalance (Cahn Instruments, Cerittos, Calif.) with a sandblasted 1 cm platinum plate and stainless steel hangdown wire was employed to determine the surface tension at the liquid-air interface. The entire apparatus was situated in a thermostated incubator set at 45° C. Surface area-surface tension measurements were made by adding 950 ml of 0.15M NaCl to the trough. Subphase temperature was controlled during the measurements at 36°-38° C.
For each experiment 27 ul of peptide/lipid admixture was applied in a random array of 13 droplets to the surface of the temperature controlled subphase and allowed to spread spontaneously for 3 minutes. (The 27 ul application corresponds to 675 ug of phospholipid). The trough surface area was then cycled from a maximum (445 sq. cm) to a minimum (178 sq. cm) surface area and back to maximum at a cycling rate of 3 cycles/min (compression ratio 2.5:1). The dynamic surface tension versus surface area was recorded for 7 complete compression-expansion cycles for each application.

[2] = Adsorption capacity, modified Wilhelmy surface balance; conditions: measured after three (3) minutes spreading time; peptide 0.5 mg/ml (~2% of solids)
Procedure: as §1
A procedure similar to that described by Notter, et al., Pediatric Res. 16, 515-519 (1982) was employed to determine the absorption rate in the absence of diffusion resistance. The modified Wilhelmy surface balance as described above was used. However, instead of using a Langmuir trough, a round Teflon dish (5.1 cm diameter) was employed. The subphase, 70 ml of 0.15M NaCl, was allowed to equilibrate to 37° C. in the incubator and was continuously stirred with a Teflon coated magnetic stirrer. An aliquot of the peptide/lipid fragment admixture containing 5 mg of total phospholipid was dispersed in 10 ml of 0.15M NaCl by vortexing for 10 seconds. This dispersion was then added to the saline subphase. Surface tension lowering was monitored using a strip chart recorder connected to the electro-balance output.

[3] = Pulsating Bubble Surfactometer (PBS) surface tension; conditions: after 5 minutes pulsation (100 cycles); 1 mg/ml phospholipid, peptide 2% of phospholipids; 0.15M NaCl; 37° C.; 20 cycles/minute; SD in parenthesis
Procedure: as §1
The PBS equipment (Electronetics, Buffalo, N.Y.) used was essentially equivalent to that described in detail by G. Enhorning, J. Appld. Physiol. 43, 198-203, (1977). Recordings were made of the pressure gradient across the wall of a small air bubble, communicating with ambient air by means of a narrow chimney stack, but otherwise entirely surrounded by a 40 ul volume of the peptide/lipid admixture. The admixture concentration employed for these studies was 1 mg/ml total phospholipid (0.02 mg/ml total peptide) and the diluent was 0.15M NaCl.
Immediately prior to loading the sample chamber, the diluted samples were sonicated for 15 seconds to remove any gas nuclei.
The pressure drop across the air-water interface was measured during pulsation by a pressure transducer, and the corresponding surface tension was determined at minimum and maximum bubble size through the application of Young's law and the Laplace equation. Measurements were all made at 37° C. and the bubble pulsed at 20 cycles/minute to render respectively a maximum (1.1 mm) and a minimum (0.8 mm) bubble diameter. (This compression/expansion corresponds to a 50% change in the surface area of the air-water interface).

[4] = Relative surface activity by dilution studies on the modified Wilhelmy Balance-Langmuir Trough; conditions: for Mean Minimum Surface Tension, relative peptide concentration 1/2: 1/2 dilution of equimolar stock with lipid mixture; for Mean Minimum Surface Tension, relative peptide concentration 1/2 / Mean Minimum Surface Tension, relative peptide concentration 1/4 / Mean Minimum Surface Tension, relative peptide concentration 1/8 / Mean Minimum Surface Tension, relative peptide concentration 1/16 / Mean Minimum Surface Tension, relative peptide concentration Equimolar / Mean Minimum Surface Tension, relative peptide concentration 2%: 675 ug phospholipid; for Mean Minimum Surface Tension, relative peptide concentration 1/4: 1/4 dilution of equimolar stock with lipid mixture; for Mean Minimum Surface Tension, relative peptide concentration 1/8: 1/8 dilution of equimolar stock with lipid mixture; for Mean Minimum Surface Tension, relative peptide concentration 1/16: 1/16 dilution of equimolar stock with lipid mixture; for Mean Minimum Surface Tension, relative peptide concentration Equimolar: equimolar to 0.5 mg/mL SP-B(53-78); for Mean Minimum Surface Tension, relative peptide concentration Equimolar / Mean Minimum Surface Tension, relative peptide concentration 2%: 445 sq. cm trough; for Mean Minimum Surface Tension, relative peptide concentration 2%: peptide 2% of solids (0.5 mg/ml); for surface activity (in words): summary of Tables 3, 4 and 5
Procedure: For the purpose of this comparison "surface activity" is defined as follows: For any given peptide concentration, the admixture is required to result in a minimum dynamic surface tension of less than 10 dynes/cm for each of seven consecutive expansion/compression cycles.
Initially each of the admixtures was formulated so as to contain an equal number of moles of the individual peptide as is contained in a 0.5 mg/mL admixture of SP-B(53-78). […] Thereafter, each of these admixtures was diluted with the standard lipid mixture as described in Example 4, so as to provide doubling dilutions of the equimolar "parent" stock peptide admixture. The lipid concentration in all cases was maintained at 25 mg/ml.
Assessment of relative surface activity was conducted on the modified Wilhemy-Langmuir Surface Balance. For these studies a standard volume of 27 ul of each admixture, corresponding to a total phospholipid mass of 675 ug, was applied to the Langmuir Trough with maximum dimensions of 445 sq. cm.

## SP-B(66-78)diLys: SP-B positions 66-78, cysteines 71 and 77 replaced with lysine (LPQLVKRLVLRKS; Pulmonary surfactant-associated protein B; UniProt P07988 266-278, looked up, variant C71K C77K)
[1]
  Surface Tension Maximum: 56.5 dynes/cm
  Surface Tension Minimum: 2.6 dynes/cm
[2]
  Adsorption (equilibrium adsorption surface tension): 48.9 dynes/cm
[3]
  Surface tension Maximum (maximum bubble size): 55.1 (6.6) dyne/cm
  Surface tension Minimum (minimum bubble size): 1.8 (0.5) dyne/cm
[4]
  Mean Minimum Surface Tension, relative peptide concentration 1/2: 8.2 mN/m
  Mean Minimum Surface Tension, relative peptide concentration 1/4: 7.0 mN/m
  Mean Minimum Surface Tension, relative peptide concentration 1/8: 15.0 mN/m
  Mean Minimum Surface Tension, relative peptide concentration 1/16: 23.0 mN/m
  Mean Minimum Surface Tension, relative peptide concentration Equimolar: 2.5 mN/m
  Mean Minimum Surface Tension, relative peptide concentration 2%: 2.6 mN/m

## SP-B(58-78)diAla: SP-B positions 58-78, cysteines 71 and 77 replaced by alanine (LDTLLGRMLPQLVARLVLRAS; Pulmonary surfactant-associated protein B; UniProt P07988 258-278, looked up, variant C71A C77A)
[1]
  Surface Tension Maximum: 57.0 dynes/cm
  Surface Tension Minimum: 0.2 dynes/cm
[2]
  Adsorption (equilibrium adsorption surface tension): 39.7 dynes/cm
[3]
  Surface tension Maximum (maximum bubble size): 52.0 (3.3) dyne/cm
  Surface tension Minimum (minimum bubble size): 7.5 (1.2) dyne/cm
[4]
  Mean Minimum Surface Tension, relative peptide concentration 1/2: 0.3 mN/m
  Mean Minimum Surface Tension, relative peptide concentration 1/4: 1.5 mN/m
  Mean Minimum Surface Tension, relative peptide concentration 1/8: 4.7 mN/m
  Mean Minimum Surface Tension, relative peptide concentration 1/16: 24.1 mN/m
  Mean Minimum Surface Tension, relative peptide concentration Equimolar: 0.0 mN/m
  Mean Minimum Surface Tension, relative peptide concentration 2%: 0.2 mN/m
  surface activity (in words): unusual surface activity

## SP-B(53-78)diAcm: SP-B positions 53-78, cysteines 71 and 77 capped with S-acetamidomethyl (Acm) groups (YSVILLDTLLGRMLPQLVC(Acm)RLVLRC(Acm)S; UniProt P07988 253-278, looked up, fragment)
[1]
  Surface Tension Maximum: 49.5 dynes/cm
  Surface Tension Minimum: 0.1 dynes/cm
[2]
  Adsorption (equilibrium adsorption surface tension): 47.0 dynes/cm
[3]
  Surface tension Maximum (maximum bubble size): 54.1 (2.6) dyne/cm
  Surface tension Minimum (minimum bubble size): 4.1 (3.1) dyne/cm
[4]
  Mean Minimum Surface Tension, relative peptide concentration 2%: 0.1 mN/m
  surface activity (in words): unusual surface activity

## SP-B(66-78): synthesized SP-B peptide fragment, positions 66-78, 13 amino acids (LPQLVCRLVLRCS; not fully specified; cysteine pairing not given here; UniProt P07988 266-278, looked up, fragment)
[1]
  Surface Tension Maximum: 50.7 dynes/cm
  Surface Tension Minimum: 0.7 dynes/cm
[2]
  Adsorption (equilibrium adsorption surface tension): 47.5 dynes/cm
[3]
  Surface tension Maximum (maximum bubble size): 61.5 (5.4) dyne/cm
  Surface tension Minimum (minimum bubble size): 9.4 (1.4) dyne/cm
[4]
  Mean Minimum Surface Tension, relative peptide concentration 1/2: 2.8 mN/m
  Mean Minimum Surface Tension, relative peptide concentration 1/4: 6.7 mN/m
  Mean Minimum Surface Tension, relative peptide concentration 1/8: 14.9 mN/m
  Mean Minimum Surface Tension, relative peptide concentration 1/16: 22.0 mN/m
  Mean Minimum Surface Tension, relative peptide concentration Equimolar: 0.6 mN/m
  Mean Minimum Surface Tension, relative peptide concentration 2%: 0.7 mN/m
